Data taken from patent US20050222009A1, “Dual phase - PNA conjugates for the delivery of PNA through the blood brain barrier” (priority 2003, published 2005).

Tested on: PC12 cells
Assay: Measurement of cellular toxicity by neutral red uptake
Type: cell-based, rat
Details: 48 hours incubation (FIG. 2); compared with control PNA
Description: As an in vitro models for neurons and for BBB we used the human neuroblastoma NMB cell line the rat catecholaminergic cell line PC12 and the mice brain-derived endothelial cell line bEND. NMB cells were adapted to grow in Dulbecco modified Eagle medium (DMEM) with 10% Hyclone calf serum (Simantov et al., 1996). PC12 cells were grown in DMEM, 10% horse serum and 5% calf serum. bEND3 cells were grown in DMEM, %10 calf serum supplemented with 2 mM glutamine. Cells were maintained in a 10% CO2 humidified incubator at 37° C. Cells were routinely sub-cultured every four to five days. When cells (5×10^3) were plated in 96 wells, dishes were pretreated with poly-L-ornithine.
PC12 cells were incubated with PNA or peptide-PNA conjugates for 48 hours. At the end of the incubation, cell morphology was examined by light microscopy. Medium was replaced with medium containing neutral red. Neutral-red uptake was determined by spectrophotometer and was used as an index for cellular toxicity (FIG. 2).

Substance	neutral red uptake to PC12 cells (index for cellular toxicity)
CHK6HC-TTT GCT CTT ACT CAT-THRPPMWSPVWP [KBP10]	no significant difference
CHK6HC-TTT GCT CTT ACT CAT-HAIYPRH [KBP11]	no significant difference
